Assay results taken from the Immune Epitope Database (IEDB).

Columns and labels:
[1] = biological target: HLA-A*03:01; test: IEDB peptide-MHC binding, purified MHC/direct/fluorescence; filed as Kd, often an IC50 or EC50 that approximates it; ≥ and ≤ were set here for values at or beyond the usual limits of such assays
[2] = biological target: HLA-A*69:01; test: as above
[3] = biological target: HLA-A*11:01; test: as above
[4] = biological target: HLA-A*26:01; test: as above
[5] = biological target: HLA-B*27:05; test: as above
[6] = biological target: HLA-B*08:01; test: as above
[7] = biological target: HLA-B*15:02; test: as above; details: source organism: Escherichia coli O157:H7
[8] = biological target: HLA-B*44:02; test: as above; details: source organism: Escherichia coli O157:H7
[9] = biological target: HLA-B*07:02; test: as above
[10] = biological target: HLA-B*40:01; test: as above
[11] = biological target: HLA-A*02:01; test: as above
[12] = biological target: HLA-B*15:01; test: as above
[13] = biological target: HLA-B*46:01; test: as above; details: source organism: Escherichia coli O157:H7
[14] = biological target: HLA-B*35:01; test: as above
[15] = biological target: HLA-A*01:01; test: as above
[16] = biological target: HLA-B*58:01; test: as above
[17] = biological target: HLA-A*30:01; test: as above
[18] = biological target: HLA-B*46:01; test: IEDB peptide-MHC binding, purified MHC/competitive/fluorescence; filed as Kd, often an IC50 or EC50 that approximates it; ≥ and ≤ were set here for values at or beyond the usual limits of such assays; details: source organism: Giardia lamblia ATCC 50803
[19] = biological target: HLA-A*31:01; test: IEDB peptide-MHC binding, purified MHC/direct/fluorescence; filed as Kd, often an IC50 or EC50 that approximates it; ≥ and ≤ were set here for values at or beyond the usual limits of such assays
[20] = biological target: HLA-A*24:03; test: as above
[21] = biological target: HLA-A*68:02; test: IEDB peptide-MHC binding, purified MHC/competitive/fluorescence; filed as Kd, often an IC50 or EC50 that approximates it; ≥ and ≤ were set here for values at or beyond the usual limits of such assays; details: source organism: Vibrio cholerae 2740-80
[22] = biological target: HLA-B*35:01; test: as above; details: source organism: West Nile virus
[23] = source organism: Escherichia coli O157:H7
[24] = source organism: Giardia lamblia ATCC 50803
[25] = source organism: Salmonella enterica subsp. enterica serovar Typhimurium
[26] = source organism: Pseudomonas aeruginosa UCBPP-PA14
[27] = source organism: Pseudomonas aeruginosa

Sequence: LQLTAVFAY
- Kd [1, 23]: ≥ 20 µM
- Kd [2, 23]: ≥ 20 µM
- Kd [3, 23]: 1.98 µM
- Kd [4, 23]: ≥ 20 µM
- Kd [5, 23]: 0.0907 µM
- Kd [6, 23]: ≥ 20 µM
- Kd [7]: 1.01 µM
- Kd [8]: ≥ 20 µM
- Kd [9, 23]: ≥ 20 µM
- Kd [10, 23]: ≥ 20 µM
- Kd [11, 23]: ≥ 20 µM
- Kd [12, 23]: 0.0796 µM
- Kd [13]: ≥ 20 µM
- Kd [14, 23]: 0.0102 µM
- Kd [15, 23]: ≥ 20 µM
- Kd [16, 23]: ≥ 20 µM

Sequence: MLMFITSSH
- Kd [1, 24]: 0.167 µM
- Kd [17, 24]: ≥ 20 µM
- Kd [3, 24]: 0.144 µM
- Kd [18]: 0.273 µM

Sequence: RVNKGTGVK
- Kd [19, 25]: 0.103 µM
- Kd [1, 25]: 0.359 µM
- Kd [2, 23]: ≥ 20 µM
- Kd [17, 25]: 0.00181 µM
- Kd [3, 25]: 0.0606 µM
- Kd [4, 23]: ≥ 20 µM
- Kd [5, 23]: ≥ 20 µM
- Kd [6, 23]: ≥ 20 µM
- Kd [20, 25]: 0.437 µM
- Kd [8]: ≥ 20 µM
- Kd [9, 25]: 12.6 µM
- Kd [10, 23]: ≥ 20 µM
- Kd [11, 25]: 1.34 µM
- Kd [12, 25]: 4.45 µM
- Kd [15, 23]: ≥ 20 µM
- Kd [16, 23]: ≥ 20 µM

Sequence: SPADERAVA
- Kd [19, 26]: ≥ 20 µM
- Kd [1, 26]: ≥ 20 µM
- Kd [2, 26]: ≥ 20 µM
- Kd [17, 27]: 8.23 µM
- Kd [3, 26]: ≥ 20 µM
- Kd [4, 26]: ≥ 20 µM
- Kd [5, 26]: ≥ 20 µM
- Kd [6, 26]: ≥ 20 µM
- Kd [20, 26]: ≥ 20 µM
- Kd [9, 27]: 0.042 µM
- Kd [10, 26]: ≥ 20 µM
- Kd [11, 26]: ≥ 20 µM
- Kd [12, 27]: ≥ 5 µM
- Kd [14, 27]: 0.124 µM
- Kd [15, 26]: ≥ 20 µM
- Kd [16, 26]: ≥ 20 µM

Sequence: TNPAITSRV
- Kd [21]: 0.0217 µM

Sequence: WMILRAISF
- Kd ([17]; source organism: West Nile virus SPU116/89): ≥ 20 µM
- Kd [22]: 1.28 µM
